Assay results taken from patent publication US20150274826A1 (ARCH ONCOLOGY, published 2015).
Residue numbers refer to the chain shown, from its start.

T1: pig CD47 (pig, UniProt Q9GKE8 19-303)
T1 construct: whole, on cells; also called CD47 on porcine RBCs
T1 sequence (looked up): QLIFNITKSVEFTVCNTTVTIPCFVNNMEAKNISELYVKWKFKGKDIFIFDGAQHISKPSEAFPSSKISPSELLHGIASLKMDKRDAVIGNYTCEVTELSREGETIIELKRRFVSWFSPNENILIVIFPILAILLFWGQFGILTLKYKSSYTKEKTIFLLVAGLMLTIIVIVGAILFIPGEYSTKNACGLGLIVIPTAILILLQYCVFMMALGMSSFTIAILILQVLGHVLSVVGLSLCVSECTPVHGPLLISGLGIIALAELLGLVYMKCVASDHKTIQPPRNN

T2: rat CD47 (rat, UniProt P97829 19-303)
T2 construct: whole, on cells; also called CD47 on rat RBCs
T2 sequence (looked up): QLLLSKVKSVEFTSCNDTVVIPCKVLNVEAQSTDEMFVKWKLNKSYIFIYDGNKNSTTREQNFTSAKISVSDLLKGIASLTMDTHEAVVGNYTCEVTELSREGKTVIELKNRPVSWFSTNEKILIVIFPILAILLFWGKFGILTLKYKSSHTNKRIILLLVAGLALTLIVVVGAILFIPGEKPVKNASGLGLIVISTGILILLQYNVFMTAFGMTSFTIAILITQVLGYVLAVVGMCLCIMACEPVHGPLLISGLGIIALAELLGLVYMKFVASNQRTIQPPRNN

T3: dog CD47 (dog, UniProt A0A8I3PM61 19-310)
T3 construct: also called CD47 on dog RBCs
T3 sequence: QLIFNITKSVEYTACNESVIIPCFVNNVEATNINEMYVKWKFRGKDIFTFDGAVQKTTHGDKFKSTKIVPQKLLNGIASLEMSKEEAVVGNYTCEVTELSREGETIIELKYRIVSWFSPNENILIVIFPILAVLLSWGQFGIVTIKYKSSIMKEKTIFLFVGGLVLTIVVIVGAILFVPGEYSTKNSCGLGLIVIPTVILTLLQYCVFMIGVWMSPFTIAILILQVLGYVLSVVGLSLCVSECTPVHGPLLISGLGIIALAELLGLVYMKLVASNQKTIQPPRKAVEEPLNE

T4: mouse CD47 (mouse, UniProt Q61735 19-303)
T4 construct: whole, on cells; also called CD47 on mouse RBCs; CD47 on 4T1 cells
T4 sequence (looked up): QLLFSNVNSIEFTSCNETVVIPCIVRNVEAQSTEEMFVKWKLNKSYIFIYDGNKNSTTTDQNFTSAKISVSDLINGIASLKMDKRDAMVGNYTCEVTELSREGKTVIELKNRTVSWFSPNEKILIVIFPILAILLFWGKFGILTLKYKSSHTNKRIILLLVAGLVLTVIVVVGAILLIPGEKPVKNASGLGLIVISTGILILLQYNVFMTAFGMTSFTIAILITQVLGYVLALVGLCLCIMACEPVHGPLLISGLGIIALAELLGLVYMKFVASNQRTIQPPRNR

B1: Clone 16 (pVxK7b-037-hum16-LC / pVxK7b-037-hum16-HC) (antibody, human IgG1, kappa, V domains shown)
VH: QVQLQESGPGLVKPSQTLSLTCTVSGYTFTNYYVFWVRQARGQRLEWIGDINPVNGDTNFNEKFKNRVTISADKSISTAYLQWSSLKASDTAMYYCARGGYTMDYWGQGTLVTVSS
VL: AIQLTQSPSSLSASVGDRVTITCRSSQSLVHSNGNTYLHWYQQKPGQAPRLLIYKVSYRFSGVPDRFSGSGSGTDFTLKISRVEAEDVGVYYCSQNTHVPRTFGQGTKVEIKR
B2: Clone 24 (pVxK7b-037-hum24-LC / pVxK7b-037-hum24-HC) (antibody, human IgG1, kappa, V domains shown)
VH: QVQLQESGPGLVKPGATVKISCKVSGYTFTNYYVFWVRQARGQRLEWIGDINPVNGDTNFNEKFKNRVTITADKSTSTAYMELSSLRSEDTAVYYCARGGYTMDYWGQGTLVTVSS
VL: AIQLTQSPSSLSASVGDRVTITCRSSQSLVHSNGNTYLHWYQQKPGQAPRLLIYKVSYRFSGVPSRFSGSGSGTEFTLTISSLQPDDFATYYCSQNTHVPRTFGQGTKVEIKR
notes: also called Cl 24
B3: Clone 4 (pVxK7b-037-hum04-LC / pVxK7b-037-hum04-HC) (antibody, human IgG1, kappa, V domains shown)
VH: QVQLQESGPGLVKPSQTLSLTCTVSGYTFTNYYVFWVRQAPGKGLEWVSDINPVNGDTNFNEKFKNRVTISVDTSKNQFSLKLSSVTAADTAVYYCARGGYTMDYWGQGTLVTVSS
VL: B2 VL with A1D, L4M, Q42L, A48S, R50Q, V63I, S65A, P85S, D86E, T90V
B4: Clone 7 (pVxK7b-037-hum07-LC / pVxK7b-037-hum07-HC) (antibody, human IgG1, kappa, V domains shown)
VH: B2 VH
VL: DIVMTQTPLSLPVTPGEPASISCRSSQSLVHSNGNTYLHWYLQKPGQSPQLLIYKVSYRFSGVPDRFSGSGSGTDFTLKISRVEAEDVGVYYCSQNTHVPRTFGQGTKVEIKR
B5: Clone 11 (pVxK7b-037-hum11-LC / pVxK7b-037-hum11-HC) (antibody, human IgG1, kappa, V domains shown)
VH: B2 VH
VL: EIVLTQSPATLSVSPGERATLSCRSSQSLVHSNGNTYLHWYQQKPGQAPRLLIYKVSYRFSGVPSRFSGSGSGTDFTFTISSLEAEDAATYYCSQNTHVPRTFGQGTKVEIKR
notes: also called Cl 11
B6: Clone 12 (pVxK7b-037-hum12-LC / pVxK7b-037-hum12-HC) (antibody, human IgG1, kappa, V domains shown)
VH: B2 VH
VL: B4 VL with L42Q, Q47K, S48A, Q50K
B7: Clone 5 (pVxK7b-037-hum05-LC / pVxK7b-037-hum05-HC) (antibody, human IgG1, kappa)
heavy: not shown
light: DIVMTQTPLSLPVTPGEPASISCRSSQSLVHSNGNTYLHWYLQKPGQSPQLLIYKVSYRFSGVPDRFSGSGSGTDFTLKISRVEAEDVGVYYCSQNTHVPRTFGQGTKVEIKRTVAAPSVFIFPPSDEQLKSGTASVVCLLNNFYPREAKVQWKVDNALQSGNSQESVTEQDSKDSTYSLSSTLTLSKADYEKHKVYACEVTHQGLSSPVTKSFNRGEC
B8: Clone 8 (pVxK7b-037-hum08-LC / pVxK7b-037-hum08-HC) (antibody, human IgG1, kappa)
heavy: not shown
light: B7 light with L42Q, Q47K, S48A, Q50K
B9: Clone 17 (pVxK7b-037-hum17-LC / pVxK7b-037-hum17-HC) (antibody, human IgG1, kappa)
heavy: not shown
light: AIQLTQSPSSLSASVGDRVTITCRSSQSLVHSNGNTYLHWYQQKPGQAPRLLIYKVSYRFSGVPDRFSGSGSGTDFTLKISRVEAEDVGVYYCSQNTHVPRTFGQGTKVEIKRTVAAPSVFIFPPSDEQLKSGTASVVCLLNNFYPREAKVQWKVDNALQSGNSQESVTEQDSKDSTYSLSSTLTLSKADYEKHKVYACEVTHQGLSSPVTKSFNRGEC
B10: Clone 18 (pVxK7b-037-hum18-LC / pVxK7b-037-hum18-HC) (antibody, human IgG1, kappa, V domains shown)
VH: EVQLVQSGAEVKKPGESLRISCKGSGYTFTNYYVFWIRQSPSRGLEWLGDINPVNGDTNFNEKFKNRVTITADKSTSTAYMELSSLRSEDTAVYYCARGGYTMDYWGQGTLVTVSS
VL: B5 VL

Target: T1, pig CD47
Experiment: flow cytometry on RBCs, CHO supernatant 10 ng/ml
Description: (§1) RBCs are incubated for 60 minutes on ice with tissue culture supernatants containing the secreted humanized antibodies at a concentration of 10 ng/ml in a solution of phosphate buffered saline, pH 7.2, 2.5 mM EDTA (PBS+E), or with various concentrations of purified antibodies. Cells are then washed with cold PBS+E, and incubated for an additional hour on ice with FITC labeled donkey anti-human antibody (Jackson Immuno Research Labs, West Grove, Pa.; Catalogue #709-096-149) in PBS+E. Cells are then washed with PBS+E, and antibody binding is analyzed using a BD FACSAria Cell Sorter (Becton Dickinson) or a C6 Accuri Flow Cytometer (Becton Dickinson). Antibody binding is quantitated by comparison of mean fluorescence values relative to that of chimeric antibody >VxP037-01LC (SEQ ID NO:7))/>VxPO37-01HC (SEQ ID NO:57). The mean fluorescence value for each antibody is divided by the mean fluorescence value for the chimeric antibody.

mean fluorescence relative to chimeric antibody [ratio]	Binder
1.1	B1
1.1	B2
0.6	B3
0.9	B4
1.2	B5
1.4	B6
1.2	B7
0.8	B8
1.3	B9
1.2	B10

Target: T2, rat CD47
Experiment: flow cytometry on RBCs, CHO supernatant 10 ng/ml
Description: as §1

mean fluorescence relative to chimeric antibody [ratio]	Binder
2.1	B1
1.2	B2
1	B3
0.8	B4
1.2	B5
1.3	B6
2.2	B7
1.2	B8
2.1	B9
2.2	B10

Target: T3, dog CD47
Experiment: flow cytometry on RBCs, CHO supernatant 10 ng/ml
Description: as §1

mean fluorescence relative to chimeric antibody [ratio]	Binder
1.1	B1
1	B2
0.6	B3
0.8	B4
0.8	B5
0.9	B6
1.1	B7
0.8	B8
1.3	B9
1.5	B10

Target: T4, mouse CD47
Experiment: flow cytometry on RBCs, CHO supernatant 10 ng/ml
Description: as §1

mean fluorescence relative to chimeric antibody [ratio]	Binder
1	B1
0.7	B2
0.6	B3
0.4	B4
0.7	B5
0.6	B6
1	B7
0.7	B8
0.9	B9
1.3	B10

Target: T5, human CD47 (human, UniProt Q08722 19-323)
T5 construct: whole, on cells; also called CD47 on human RBCs; CD47 on OV10 cells
Experiment: flow cytometry on RBCs, CHO supernatant 10 ng/ml
Description: as §1

T5 sequence (Q08722 19-323): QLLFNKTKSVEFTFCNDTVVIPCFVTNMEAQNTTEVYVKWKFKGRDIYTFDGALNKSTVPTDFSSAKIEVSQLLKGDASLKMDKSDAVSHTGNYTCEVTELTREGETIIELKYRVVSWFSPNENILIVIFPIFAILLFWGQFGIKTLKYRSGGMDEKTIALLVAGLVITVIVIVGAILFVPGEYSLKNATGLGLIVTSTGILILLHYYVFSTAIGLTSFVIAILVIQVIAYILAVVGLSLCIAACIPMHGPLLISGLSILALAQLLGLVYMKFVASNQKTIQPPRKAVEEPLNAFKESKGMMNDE

mean fluorescence relative to chimeric antibody [ratio]	Binder
0.9	B1
0.8	B2
0.6	B3
0.5	B4
0.8	B5
0.8	B6
1	B7
0.7	B8
0.8	B9
1	B10
